Data set [1] concerns DSS-induced intestinal colitis in C57Bl/6 mice. As to the kind of experiment: Murine acute DSS-induced colitis model. It is filed as in vivo, mouse. The protocol: To determine the efficacy of GLP2-XTEN, the GLP2-2G-XTEN-AE864 fusion protein was evaluated in a mouse model of intestinal inflammatory colitis. […] A naïve, non-treated control group (group 1) was given normal drinking water for the duration of the experiment. […] Tissues were fixed in formalin and then transferred to ethanol for staining and histopathology. The anatomical data was analyzed with an ANOVA model with a Tukey/Kramer post-hoc test for pairwise comparisons, with significance at p=0.05.

The conditions of data set [2]: rat, in vivo. The protocol:
The fusion protein GLP2-2G-XTEN_AE864 was evaluated for its pharmacokinetic properties in Wistar rats following SC administration of two different dosage levels. Prior to the experiment, catheters were surgically implanted into the jugular vein of female Wistar rats. The catheterized animals were randomized into two groups containing three rats each. The fusion protein GLP2-2G-XTEN (lot AP510) was administered to each rat via SC injection as follows: 1) Low Dose 2 mg/kg (25 nmol/kg); or 2) High Dose 16 mg/kg (200 nmol/kg). Blood samples (˜0.2 mL) were collected through the jugular vein catheter from each rat into prechilled heparinized tubes at pre-dose, 0.08, 4, 8, 24, 48, 72, 96, 120 and 168 hours after test compound administration (10 time points). Blood was processed into plasma by centrifugation, split into two aliquots for analysis by ELISA. The samples were analyzed for fusion protein concentration, performed by both anti-XTEN/anti-XTEN sandwich ELISA (AS1602) and anti-GLP2/anti-XTEN sandwich ELISA (AS1705) and the results were analyzed using WinNonLin to obtain the PK parameters. Terminal half life was fit from 48 to 168 hours.

For data set [3] the following is noted: mouse, in vivo. As for the experimental part: The fusion protein GLP2-2G-XTEN_AE864 was evaluated for its pharmacokinetic properties in C57Bl/6 mice following subcutaneous (SC) administration. Female C57Bl/6 mice were injected SC with 2 mg/kg (25 nmol/kg) of the GLP2-2G-XTEN (lot AP498A) at 0.25 mg/mL (8 mL/kg). Three mice were sacrificed at each of the following time points: Predose, 0.08, 4, 8, 24, 48, 72, 96 and 120 hours post-dose. Blood samples were collected from the mice and placed into prechilled heparinized tubes at each interval and were separated by centrifugation to recover the plasma. The samples were analyzed for fusion protein concentration, performed by both anti-XTEN/anti-XTEN sandwich ELISA (AS1405) and anti-GLP2/anti-XTEN sandwich ELISA (AS1717), and the results were analyzed using WinNonLin to obtain the PK parameters.

Where two headings read alike, the source gives them in different places.

B1: GLP2-2G-XTEN_AE864: fusion protein of GLP-2 with glycine at position 2 linked at the C-terminus to XTEN AE864; sequence of FIG. 28 (SEQ ID NO: 798) (protein)
chain: HGDGSFSDEMNTILDNLAARDFINWLIQTKITDGGSPAGSPTSTEEGTSESATPESGPGTSTEPSEGSAPGSPAGSPTSTEEGTSTEPSEGSAPGTSTEPSEGSAPGTSESATPESGPGSEPATSGSETPGSEPATSGSETPGSPAGSPTSTEEGTSESATPESGPGTSTEPSEGSAPGTSTEPSEGSAPGSPAGSPTSTEEGTSTEPSEGSAPGTSTEPSEGSAPGTSESATPESGPGTSTEPSEGSAPGTSESATPESGPGSEPATSGSETPGTSTEPSEGSAPGTSTEPSEGSAPGTSESATPESGPGTSESATPESGPGSPAGSPTSTEEGTSESATPESGPGSEPATSGSETPGTSESATPESGPGTSTEPSEGSAPGTSTEPSEGSAPGTSTEPSEGSAPGTSTEPSEGSAPGTSTEPSEGSAPGTSTEPSEGSAPGSPAGSPTSTEEGTSTEPSEGSAPGTSESATPESGPGSEPATSGSETPGTSESATPESGPGSEPATSGSETPGTSESATPESGPGTSTEPSEGSAPGTSESATPESGPGSPAGSPTSTEEGSPAGSPTSTEEGSPAGSPTSTEEGTSESATPESGPGTSTEPSEGSAPGTSESATPESGPGSEPATSGSETPGTSESATPESGPGSEPATSGSETPGTSESATPESGPGTSTEPSEGSAPGSPAGSPTSTEEGTSESATPESGPGSEPATSGSETPGTSESATPESGPGSPAGSPTSTEEGSPAGSPTSTEEGTSTEPSEGSAPGTSESATPESGPGTSESATPESGPGTSESATPESGPGSEPATSGSETPGSEPATSGSETPGSPAGSPTSTEEGTSTEPSEGSAPGTSTEPSEGSAPGSEPATSGSETPGTSESATPESGPGTSTEPSEGSAPG
As to B1, in data set [1] (DSS-treated mice, 6 mg/kg qd), the “histopathology of small intestine” value is “normal mucosal architecture with elongated villi densely populated with columnar epithelial and goblet cells”. In addition, in data set [1] (DSS-treated mice, SC days 1-10, peptide BID, fusion protein QD, any dose), the “loss of body weight” value is listed as “neither the mice treated with GLP2-2G peptide nor any of the groups of mice treated with any dose of GLP2-2G-XTEN mice showed a reduced loss of body weight”. In addition, the “protection of the intestines from inflammatory effects of DSS” value in data set [1] (conclusion of the experiment) was “protected the intestines from the inflammatory effects of DSS, with maintenance of normal villi and mucosal architecture”. Further, the small intestine weight entry in data set [1] (high dose group (6 mg/kg), compared to control groups 1 and 2, day 10) is reported as “increase in small intestine weight”. Besides, in data set [1] (medium dose group (2 mg/kg), compared to group 1, day 10), the small intestine weight entry is listed as “increase in small intestine weight”. For the same molecule, in data set [2], the Cl turned out to be 0.80 mL/h, the “T ½” value is 43.6 h and the Vd amounted to 0.21 L/kg. The terminal half-life in data set [2] (sc) fell in the range of 37.5 to 49.7 h. In data set [2] (sc, 2 mg/kg), the AUCInf worked out at 530 µg·h/mL and the Vz turned out to be 43.4 mL. Also, in data set [3], the Cl was found to be 0.07 mL/h, the “T ½” value is 33.9 h and the volume of distribution (Vd) was found to be 0.14 L/kg.

Source of the values: patent US20250388643A1, “GLUCAGON-LIKE PEPTIDE-2 COMPOSITIONS AND METHODS OF MAKING AND USING SAME” (Amunix Pharmaceuticals, Inc., priority 2011, published 2025).
